Legend:
UNK (called full-length) [1] = molecular target: T1, UNK (called full-length) (UniProt Q9C0B0 30-357); assay: fluorescence polarization; 50 nM unlabeled N16 RNA; FP: 5 nM RNA, 20 mM Hepes (pH not given), 5 mM DTT, 137.5 mM NaCl, 0.01% Triton X-100, 10 ng/ul BSA, 2 U/ml SUPERase-In; 15 min at 4 C, read at 25 C; positional
T1 sequence: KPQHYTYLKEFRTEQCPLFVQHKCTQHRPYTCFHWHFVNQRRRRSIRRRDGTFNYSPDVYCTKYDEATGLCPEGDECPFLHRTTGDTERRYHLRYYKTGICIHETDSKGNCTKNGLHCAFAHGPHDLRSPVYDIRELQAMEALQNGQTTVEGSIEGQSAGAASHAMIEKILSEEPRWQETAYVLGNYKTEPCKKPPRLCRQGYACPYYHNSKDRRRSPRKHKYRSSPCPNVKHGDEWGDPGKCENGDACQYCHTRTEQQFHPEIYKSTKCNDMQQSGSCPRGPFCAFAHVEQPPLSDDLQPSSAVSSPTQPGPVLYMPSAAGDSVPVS

UNK (called full-length) [2] = molecular target: T1, UNK (called full-length); assay: as above; remark: listed apart in the source
UNK (called full-length) [3] = molecular target: T1, UNK (called full-length); assay: fluorescence polarization; FP: 5 nM RNA, 20 mM Hepes (pH not given), 5 mM DTT, 137.5 mM NaCl, 0.01% Triton X-100, 10 ng/ul BSA, 2 U/ml SUPERase-In; 15 min at 4 C, read at 25 C; positional
MSI1 full-length [4] = molecular target: T2, MSI1 full-length (mouse, UniProt Q61474 1-362); assay: as above
T2 sequence (Q61474 whole entry): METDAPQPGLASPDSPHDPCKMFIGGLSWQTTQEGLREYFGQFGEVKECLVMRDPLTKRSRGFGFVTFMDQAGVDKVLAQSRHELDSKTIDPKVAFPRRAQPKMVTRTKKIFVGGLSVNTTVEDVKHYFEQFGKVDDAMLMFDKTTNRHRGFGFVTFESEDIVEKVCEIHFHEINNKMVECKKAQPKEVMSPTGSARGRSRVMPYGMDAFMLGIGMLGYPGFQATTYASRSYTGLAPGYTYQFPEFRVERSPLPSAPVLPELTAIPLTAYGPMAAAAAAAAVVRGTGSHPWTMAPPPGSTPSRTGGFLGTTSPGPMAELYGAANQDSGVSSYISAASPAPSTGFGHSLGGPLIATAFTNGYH

MSI1 swap = MSI1 swap (mouse, UniProt Q61474 1-19+109-191+104-108+20-103+192-362, internal_change); assay: as above
MSI1 swap, sequence (Q61474 other isoform, or with tags, fused parts or gaps): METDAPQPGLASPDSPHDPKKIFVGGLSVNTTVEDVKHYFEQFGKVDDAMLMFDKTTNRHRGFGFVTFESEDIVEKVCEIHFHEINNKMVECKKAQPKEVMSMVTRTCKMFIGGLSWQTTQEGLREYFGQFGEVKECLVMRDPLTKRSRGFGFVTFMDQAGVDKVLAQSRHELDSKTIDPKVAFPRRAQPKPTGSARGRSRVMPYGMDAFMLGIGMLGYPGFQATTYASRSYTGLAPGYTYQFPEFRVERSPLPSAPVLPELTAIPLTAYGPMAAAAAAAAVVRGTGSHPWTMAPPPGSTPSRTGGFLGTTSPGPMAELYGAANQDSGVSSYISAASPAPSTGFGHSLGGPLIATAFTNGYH

MSI1 full-length [5] = molecular target: T2, MSI1 full-length; assay: as above; remark: listed apart in the source
MSI2 full-length = MSI2 full-length (UniProt Q96DH6 1-328); assay: as above
MSI2 full-length, sequence (Q96DH6 whole entry): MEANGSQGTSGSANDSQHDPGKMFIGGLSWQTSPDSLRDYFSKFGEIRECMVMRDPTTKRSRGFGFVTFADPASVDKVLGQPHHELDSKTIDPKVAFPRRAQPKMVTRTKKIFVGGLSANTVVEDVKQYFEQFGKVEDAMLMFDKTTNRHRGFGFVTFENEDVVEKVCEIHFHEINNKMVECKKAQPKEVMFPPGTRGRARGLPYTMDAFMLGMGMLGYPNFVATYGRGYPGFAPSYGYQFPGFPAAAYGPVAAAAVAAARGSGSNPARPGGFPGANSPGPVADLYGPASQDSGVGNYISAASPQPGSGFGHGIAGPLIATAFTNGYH

AAAAAUUAGUUAAUA (ssRNA) [UAG-AUA FP RNA]
Kd (UNK (called full-length) [1]): 90 nM

CCCCCCAAUUAGAAAAAA (ssRNA) [CCC-UAG FP RNA]
binding signal (UNK (called full-length) [2]): ~2 fold tighter than mono-UAG

CCCCCCCCCCCCCCCC (ssRNA) [polyC FP RNA]
binding result (UNK (called full-length) [3]): no binding

CCCCCCAAUUAGUUAAUA (ssRNA) [CCC-UAG-AUA FP RNA]
binding signal (UNK (called full-length) [2]): ~1 fold vs UAG-AUA (little impact of upstream C)

UUAGUUAGUU (ssRNA) [dual-UAG FP RNA]
binding signal (MSI1 full-length [4]): ~10 fold tighter than mono-UAG
binding signal (MSI1 swap): ~1 fold vs MSI1 on dual-UAG (no observable Kd difference)

UUUUUUUUUUUUUUUU (ssRNA) [polyU FP RNA]
binding result (UNK (called full-length) [3]): no binding

AAAAAAAAUUAGAAAAAA (ssRNA) [mono-UAG FP RNA]
Kd (MSI1 full-length [5]): 126 nM
Kd (UNK (called full-length) [1]): 400 nM
binding signal (MSI1 swap): ~2 fold weaker than MSI1 on mono-UAG

UAGUUUAGUUUAGUU (ssRNA) [tri-UAG FP RNA]
Kd (MSI2 full-length): 2 nM
Kd (MSI1 full-length [5]): 5 nM
